Key:
[1] = test system: T1, EppR-His6 (Acinetobacter baumannii ATCC17978), ORF:cce4f89b; experiment: EMSA
T1 sequence: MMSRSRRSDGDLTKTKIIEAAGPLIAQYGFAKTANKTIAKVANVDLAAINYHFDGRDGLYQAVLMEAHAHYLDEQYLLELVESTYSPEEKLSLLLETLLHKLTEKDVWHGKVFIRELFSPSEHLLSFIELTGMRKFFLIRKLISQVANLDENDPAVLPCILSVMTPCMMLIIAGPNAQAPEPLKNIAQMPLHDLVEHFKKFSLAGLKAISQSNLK

[2] = test system: EppR-His6 (Acinetobacter baumannii ATCC17978); experiment: EMSA

ACTCATATTTAAGTGTTCAGAATTTCATTGATAAAAATCAAAACAGTCAGTAATAAGAACTATTTCACAATAGGTTTTGATTCTCTTCAAATTACCATTTCCGTTTTAACATCCCTGTTAAAAGCAAAATGGATTAAAATCTGATCATGAAATTTATTGTTATGCAAAAAAAATATTTCGTCAACTTGAAAATGTAACTTTTTCAAGTTACATTGTTTGTGTAGGATTTGAACGGTGAAATGGAGGCGAT (double strand) [umuDAb (1389) promoter]
binding [1]: binds

ATGTTTCCCCTAGCTTGATTTTGTAACATATTCAAGATGATATTCTAGAGATGAGCATAAATTCAAATTTAAAAAGTTGTGGATAAACAAGGGGAAGTCAAAAACTGACGTAGCCAAAAGTGCATTTGGTCGGAATTTATGCATTGCTGTACAGTGAGGCAACCATAGCATGGGAATCAAAATATTAGCTTTGAGATTGTAAATCTTTGTGGAACTTAATGTTCCACACTATTGCTTATTTATAGCAAAT (double strand) [umuDC1174-1173 promoter]
binding [1]: binds

TATTTCATCCCCTTACTCATTAACTGAAATCTGCATTTTGAATTTGTAACATAATCAAGTTAACAAAATTACGGGCTGATATCTAGGGGAGTTTCAGTTGTTCGTCGAAATTATAGGTAGGAGATAAAATCTATGAAATGTCAGTTATTGATATGGAAATGTCTGAAAATGATAAGTTTTAATTGGTTATGATCGGAAATATAAGAGCTATATTTAATGGATGAGTTGAGTCTTTTAAATGTAGTAATGC (double strand) [umuC2008 promoter]
binding [1]: binds

AATAAAGTAGAGCACAGCTTAATTTCAAATTTAAAAGTTGTGGATAAACAAATTGATCTAGAAAAAATGATCAACGGATAAAGGAATATTTAATTTTTTTATGCGGGCCTCTACCGCTTATAGAACAGTTTTTAAACAATTTTACTTATAGCTTCATTCA (double strand) [umuDC0636-0637 promoter]
binding [1]: binds

CTTTTTTATTCATCTTTTTGGCCTTCTTATTAAATTCAAATTTACATAGTTTAAATTCAATTTAAATTTAAATTACCTTAATCTTTGAATAAAAGATATACTTTTATGATGAAATAAAATTAGGTTTAAACATGTCC (double strand) [eppR promoter]
Kd [1]: 123 nM

eppR promoter
Kd [2]: 123 nM

ACCATTTTGAAATCGTAACAAATTCAAGATAAATGGTAGAGTTGAGTAAAGAGAAATTCAAATTTAAAAAATTGTGGATAAACAAGTAAAAGTCAAAAATTGTCGCAGTATCTGGCGCATTTGGTCGGAAATTCTTCAGTTCTGATCTAG (double strand) [umuC2015 promoter]
binding [1]: binds

Source: doi:10.1101/2024.09.30.615892
